Laboratory results: publication PMC6174002

T1: RpoN (sigma54) (Leptospira biflexa strain Patoc 1 …, UniProt B0SR56 1-473)
T1 sequence: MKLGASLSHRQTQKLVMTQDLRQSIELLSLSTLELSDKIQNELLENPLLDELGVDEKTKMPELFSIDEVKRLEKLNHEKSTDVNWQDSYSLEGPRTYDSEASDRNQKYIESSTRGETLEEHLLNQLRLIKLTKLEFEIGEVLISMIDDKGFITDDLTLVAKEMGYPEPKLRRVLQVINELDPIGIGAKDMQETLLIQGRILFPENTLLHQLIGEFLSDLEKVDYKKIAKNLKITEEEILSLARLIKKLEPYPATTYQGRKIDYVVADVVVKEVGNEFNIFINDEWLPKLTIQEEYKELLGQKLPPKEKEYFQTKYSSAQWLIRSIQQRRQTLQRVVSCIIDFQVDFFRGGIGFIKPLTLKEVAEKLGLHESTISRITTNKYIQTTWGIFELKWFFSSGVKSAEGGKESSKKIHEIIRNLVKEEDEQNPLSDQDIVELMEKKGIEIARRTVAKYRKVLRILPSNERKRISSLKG


How the values were obtained:
[1] = biological target: T1, RpoN (sigma54); assay: EMSA
[2] = biological target: T1, RpoN (sigma54); assay: competition

Row | Binder | binding result [1] | binding result [2]
1 | rcfA promoter -24/-12 probe (dsDNA) DNA 1: TAAGCCCAATATGCTTTTGGCACGATAGTTGCATCTATTCTACTG DNA 2: TTCAGTAGAATAGATGCAACTATCGTGCCAAAAGCATATTGGGCTT | binds | 
2 | rcfA promoter cold competitor (dsDNA) DNA 1: TAAGCCCAATATGCTTTTGGCACGATAGTTGCATCTATTCTACTG DNA 2: TTCAGTAGAATAGATGCAACTATCGTGCCAAAAGCATATTGGGCTT |  | binds
